# Assay results as given in the domain aggregation screens of Martell et al. (2025).
# Assay: soluble fraction after stress (log2 fold change); higher = more stays soluble; pooled small domains, quantitative proteomics
# Conditions: stress: pH 4
# How it was run: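 Aggregation propensity is estimated from the fold change in each domain's soluble amount after acid stress. Pooled small-domain libraries were stressed at pH 4, and higher log2 values mean more stayed soluble.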
row,Sequence,soluble fraction (log2)
1,HMDKNLQYADTPKGKLREYIKNLPNGSTVNRQKLAEEFGIKKQSMGTVTEVFQEFPDKNFKFVNP,-0.157
2,HMTKKEFLDILTESLAGNVPASEIEENIRYYKDYIENGEESEEKALEQLGDPHLIARTIIDSFIA,-1.46
3,HMLADIGGRIADLRREVGLTQGELAEKADISVVHLSNIELGKKTPGLSTLIRIAEALDVATDWILQA,-1.13
4,HMRQQSLHSLYRDHHSWLQNWLRRQLGNTWDAADLSQDTFIKVLASSQSVAEIREPRAYLLTVGKRL,-0.0586
5,HMASRSQTEIMHLLSSGLPKHELVTALQSLLGISKPTAYKYLSQDVSIAYDHMVKILEYPPFQRVLYQ,-0.799
6,HMTGEDIKKVILREYAREKSLLSIFHELSKVNSNVTLEVIKDIITNIDKLPNDLLQYFKEESSFYQKNKN,-1.35
7,HMSGSILVQVSATDLNIRKGPGTNYGTTGKYTGKGTFTIVETRSGQGSNAGWGKLKSGAGWISLDYAKR,-0.0233
8,HMRKDWTPGAFVEAFVNDTPATRSTILAKAVSAGLSRWAADNLLRTADNDGLMVRQGSGKRNEPFTYRRGP,0.22
9,HMVVPRSFKYEVLAHGGWAGNAQRYQTKEEALHAGLALSRRWTAVEDYRAVPSDDLPNQPAL,0.127
10,HMTWDSFIGYTVTDVQKGYLGEITDVDETTINVLLRVDHKGEELLIPAVEELITEADHEARSLTVSLPEGL,-2.11
11,HMTRPLVILEDVKFPSYNEIVSLTLPDGTRRGGQVLEVSGNKAIVQVFEGTSGIDVKDTHIELTKSS,0.0449
12,HMRPFAMNLLEKHKADIEVWLKHPNMTNTQIKRLLEELGTSVSVSSIDRFISTSFPKLPKHT,-0.207
13,HMGSLGRAIRSRREKMKVGLEELAAKTGLSESHISDIEEGRGFAPVGDILKIARALTIDPGELLK,0.426
14,HMQVVVEKSKEKVIISGNQYYIHIVKKGETAFSIAKAYGITVDELVKNNPSAATVLKEGQALRIPVVE,0.22
15,HMGESFEELAREISDDTGSKTEGGETGLFPRGVMAPQFEEAAFLLKVGDISEPIRTKFGYHIIKLKEIKP,-0.0823
16,HMDGSEYAGTVRLGDGTLQPVPRFETSNSETPKYLYLVMDVTHDPPVYILEHESAELKSVLGGLVLIGSYS,-0.0612
17,HMETTVSYSGVVTASVLRIRKGPSVSSSVAGTLKKGTGVSIIFEDNGWGKLADGSGWVSLTYIKKNSTP,-0.101
18,HMDSSITLMRMYIPKGHNWENKLISDVSMPTNSLALMIKRNGTTIIPKGDTMILAKDTLILSVPSYEPS,-1.86
19,HMKLSALRDKIKEHLLRQIQNGELQVGKTINLAALSRVTGISVTPIREALTQLEQAQVIQAVPNRGFVVA,0.184

row,Sequence,soluble fraction (log2)
1,HMFTKYSPDFKLSVILDMRKNNLGYGEVVRKYWNLDSYKESDRHRSQVRLWERIFLEEGVEGFM,-1.77
2,HMTFNEPSPKEIMDYSLSRGYKVDADAFIDFYRGKAKAYGKEGLWLDGRGRLVKDWRAKLRVVWFKDENKL,-1.09
3,HMQMRKENKILVTDIGEIDEVKVIFDDDNKPYLYSYNGEDEFYRPDETYKFFDNKEQAEEYVREN,-0.891
4,HMISRDPYDAGAIKRHFSASGLFSSKELAHYLGKSVSTAKNVLSDLQQQGIVEMVGQGPATKYRFI,0.285
5,HMKISQSRKAGKLVLESELKRGGVSLDQYRGGRMSRILELIGVKSLNELLTDLGTGKKTGALVAERFFSGL,-0.036
6,HMNIDEIIGKKAVVIESIDNLQGTGKVRYQGMEWTARAEEENDRIEKDAEVEIIAVKGVKLIVKMK,-0.19
7,HMARIDYHAMDSDDLSFSEGELLEIYDKPGSFWWKGRSLVSGDEGDIPS,-1.15
8,HMKSFIWKQYTVQITKKNVKNTNVRIKRDNPHVILMSIPYSATYKAGLLALETPHIRHWLDNYERKLKQ,0.0309
9,HMRIAGIDIPDNKRGEVALTYIFGIGRSSSKKILKSAGIDSDKQIGKWTDDESNLVRKLIRDEYTIEGDL,-0.484
10,HMRTYEHALTEEEKELILIVSNLSEYKSLPPSQIVPKLADLGIYIASESSFYRVLRAHNQLHHRGR,-1.27
11,HMKAPDSQYKPLTDFQTDASFQKLDAYLRNRYPAMLANAVVYDVLRTPDAISYRVNYQVDNKMITINAAVT,0.157
12,HMKELVEDFASRISNARQSKGWNQSELAKRMAETVNVVKSAESGKSPTDSVIKKLERVLGIILM,0.0723
13,HMEEYLENLTQSKLLHMLDQLSPAYKTVFTLFVLDELSHEEISKMLNISIGTSKSNLFRARKVMRVLMESE,-0.283
14,HMGRLNMRRIRDVLRLKFGQGLSERQVAASLGLSKTSVGTYLHRARQAGLTWPLPQGLDDDGLELLLFP,0.0376
15,HMTNYNTEKIIPEEQAGKRLDVVLANIFPEFSRSRLKNWIIDGFILVDGKVLRPRDFVTGGELVSIDVIV,-0.356
16,HMKADIEQVQRAFDTLDPKNQQLVLDAMKAATAELDPNSDQFKTNTEFINDNQKALDRHAKAS,0.0627
17,HMPSGLFEPIKKSELSIESIDLLKDQIRAFKQADIRITFGFLLDLITKGENPAYVNASKLFEQAWER,-0.241
18,HMYRLDVEISDEIKRDIDEETLSEIKGIIAEDPRPSYQNDETRIYRFTFAGREISFRVKDRTATVTEIL,-0.736
